Test results taken from patent US11078246B2, “Peptides binding to Bfl-1” (Dana-Farber Cancer Institute, Inc., priority 2015, dated 2021).
Where a chain is given by its changes, count along the chain named. Positions of bridges follow the written chain, without caps; N, C: chain ends. Non-standard residues stand in square brackets, D forms with d. No end group written: not given here. S5 = C=CCCC[C@](C)(N)C(=O)O

Experiments:
Bfl-1 [1] = biological target: T1, Bfl-1 (Homo sapiens, UniProt Q16548); experiment: Bfl-1:NOXA conjugation assay (disulfide bond, GSSG oxidation); format: binding; conditions: non-reducing SDS-PAGE
T1 sequence (Q16548 1-175): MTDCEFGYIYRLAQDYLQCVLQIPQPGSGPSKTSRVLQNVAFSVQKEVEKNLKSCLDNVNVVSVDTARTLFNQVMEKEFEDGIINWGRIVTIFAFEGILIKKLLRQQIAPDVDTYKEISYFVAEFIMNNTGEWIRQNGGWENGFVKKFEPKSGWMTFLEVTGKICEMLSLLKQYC
Method: Next, the impact of the Cys25 in NOXA was investigated. […] The distance between the sulfurs of the cysteine residues is 3.5 A according to the previously determined crystal structure of the bound proteins (PDB ID 3MQP). […] To examine the impact of Cys25 in NOXA on target interaction, we examined the binding of WT NOXA SAHB and NOXA C25S SAHB to Bfl-1 and to a variety of Bfl-1 cysteine mutants. In vitro conjugation assays were performed in order to verify the formation of the disulfide bond. Global reduction of the protein and the NOXA peptides, followed by the introduction of an oxidant such as GSSG led to production of a disulfide bond, shown as a 3 kDa shift on non-reducing SDS-PAGE (FIG. 4A). […] (FIG. 4A).
Fluorescence polarization assay: The solution-state equilibrium binding assay was used to determine binding affinities of the stapled peptides to the anti-apoptotic proteins. Proteins were serially diluted from 1 μM, then combined with FITC-labeled SAHB and polarization measured at 5 min on a microplate reader. We then calculated dissociation constants (KD) by nonlinear regression analysis of dose-response curves. […] Samples were then run on non-reducing SDS-PAGE, scanned for fluorescence, then stained with Coomassie. […] Plates were read following liposome lysis with 1% Triton X-100 to determine maximal release (F100). Percent ANTS/DPX release was calculated as […]. […]

Bfl-1 [2] = biological target: T1, Bfl-1; experiment: Competitive binding assay after pre-forming the Bfl-1:NOXA disulfide bond; conditions: Bfl-1:NOXA disulfide bond pre-formed
Method: The functional impact of the Bfl-1:NOXA disulfide bond formation was evaluated using competitive binding assays and liposomal release assays.

Bfl-1 [3] = biological target: T1, Bfl-1; experiment: Liposomal release assay (Bfl-1 inhibition of BAX activation); format: biochemical
Method: Fluorescence polarization assay: The solution-state equilibrium binding assay was used to determine binding affinities of the stapled peptides to the anti-apoptotic proteins. Proteins were serially diluted from 1 μM, then combined with FITC-labeled SAHB and polarization measured at 5 min on a microplate reader. We then calculated dissociation constants (KD) by nonlinear regression analysis of dose-response curves. Bfl-1:NOXA conjugation assay: The conjugation assay was developed to test for disulfide bond formation in a non-reducing environment, 3:1 FITC-stapled peptide:protein molar ratio was combined in the presence of DTT, then diluted and incubated with 1.2 molar excess GSSG. Samples were then run on non-reducing SDS-PAGE, scanned for fluorescence, then stained with Coomassie. […] ANTS release and dequenching due to DPX dissociation (F) was measured over a period of 120 min with an M1000 Infinite plate reader (Tecan) with excitation and emission wavelengths of 355 nm and 520 nm, respectively. Plates were read following liposome lysis with 1% Triton X-100 to determine maximal release (F100). Percent ANTS/DPX release was calculated as […]. […]

BFL-1ΔC [4] = biological target: T2, BFL-1ΔC (Homo sapiens, UniProt Q16548); experiment: In vitro covalent conjugation assay (DTT reduction, GSSG oxidation); format: binding; conditions: DTT 10 mM then GSSG 12 mM; Coomassie, FITC scan
T2 construct: cDNA encoding BFL-1ΔC (aa 1-153) was cloned into the pET19b expression vector; made in house; host or cells: Escherichia coli BL21(DE3) LOBSTR
T2 sequence (Q16548 1-153): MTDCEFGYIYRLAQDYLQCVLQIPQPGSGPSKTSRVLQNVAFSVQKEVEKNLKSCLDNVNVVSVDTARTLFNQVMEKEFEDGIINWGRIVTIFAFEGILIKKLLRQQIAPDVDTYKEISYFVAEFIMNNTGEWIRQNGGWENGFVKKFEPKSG
Method: (§1) Biolayer Interferometry: Binding analyses of NOXA peptide interactions with BFL-1ΔC were performed on an Octet RED384 system (Fortebio, Menlo Park, Calif.) at 30° C. Super streptavidin (SSA) tips were prewetted in 1× kinetics buffer (PBS, pH 7.4, 0.01% BSA, 0.002% Tween-20) and then conjugated to NOXA SAHBs bearing an N-terminal biotin-PEG linker (10 μg/mL). Excess streptavidin was quenched by incubation with 2 μg/mL biocytin. The tips were then washed with kinetics buffer and soaked in a serial dilution of BFL-IAC for 10 min to measure association rate, followed by a 15 min incubation in kinetics buffer to measure dissociation rate. Dissociation constants were calculated using Octet Data Analysis version 9.0. […] After this incubation in a reducing environment, the mixture was diluted 5-fold into 50 mM Tris pH 8.0, 100 mM NaCl, 12 mM GSSG and incubated in the dark for an additional 30 min at RT. […] The gel was rinsed with water, subjected to FITC scan (Typhoon FLA 9500, GE Healthcare) and then Coomassie staining.

BFL-1ΔC [5] = biological target: T3, BFL-1ΔC (Homo sapiens, UniProt Q16548, C19S/C4S); experiment: as above; format: binding; conditions: Coomassie, FITC scan
T3 construct: cDNA encoding BFL-1ΔC (aa 1-153) was cloned into the pET19b expression vector; made in house; host or cells: Escherichia coli BL21(DE3) LOBSTR
T3 sequence (Q16548 1-153 C4S/C19S): T2 sequence (Q16548 1-153) with C4S, C19S
Method: as §1

BFL-1ΔC [6] = biological target: T4, BFL-1ΔC (Homo sapiens, UniProt Q16548, C19S/C4S/C55S); experiment: as above; format: binding; conditions: Coomassie, FITC scan
T4 construct: cDNA encoding BFL-1ΔC (aa 1-153) was cloned into the pET19b expression vector; made in house; host or cells: Escherichia coli BL21(DE3) LOBSTR
T4 sequence (Q16548 1-153 C4S/C19S/C55S): T2 sequence (Q16548 1-153) with C4S, C19S, C55S
Method: as §1

MCL-1ΔNΔC = biological target: T5, MCL-1ΔNΔC (Homo sapiens, UniProt Q07820); experiment: In vitro covalent conjugation assay (oxidizing conditions); format: binding
T5 construct: MCL-1ΔNΔC (aa 170-327) and BCL-XLΔC (aa 1-212) constructs were cloned into pGEX-4T-1; GST (N, cleaved yes); made in house; host or cells: Escherichia coli BL21(DE3)

BCL-XLΔC = biological target: T6, BCL-XLΔC (Homo sapiens, UniProt Q07817); experiment: as above; format: binding
T6 construct: MCL-1ΔNΔC (aa 170-327) and BCL-XLΔC (aa 1-212) constructs were cloned into pGEX-4T-1; GST (N, cleaved yes); made in house; host or cells: Escherichia coli BL21(DE3)

GST-MCL-1ΔNΔC = biological target: T7, GST-MCL-1ΔNΔC (Homo sapiens, UniProt Q07820); experiment: Streptavidin pull-down from anti-apoptotic protein mixture; format: binding; conditions: 1:1:1:1 mixture, 1 μM each, biotinylated SAHB
T7 construct: MCL-1ΔNΔC (aa 170-327) and BCL-XLΔC (aa 1-212) constructs were cloned into pGEX-4T-1; made in house; host or cells: Escherichia coli BL21(DE3)
Method: Streptavidin Pull-down: Recombinant His-BFL-1ΔC, BCL-XLΔC (tagless) and GST-MCL-1ΔNΔC (1 μM each) were combined and reduced with 3 mM DTT in PBS for 30 min at RT, and then incubated with 1 μM biotinylated SAHBA, SAHBA-3 or vehicle for 4 h at RT. The mixtures were then combined with PBS-washed high-capacity SA agarose (Thermo Fisher Pierce) and incubated with rotation for 2 h at RT. The beads were centrifuged at 3000 rpm, washed twice with NP-40 lysis buffer (1% NP40, 50 mM Tris pH 8.0, 100 mM NaCl, 2.5 mM MgCl2), once with PBS, and then bound protein eluted by boiling in 10% SDS containing 10 mg/mL biotin. Inputs (10%) and eluates were electrophoresed on a 12% Bis-Tris gel and then subjected to silver stain and imaging.

T7 sequence (Q07820 170-327, stated change not applied): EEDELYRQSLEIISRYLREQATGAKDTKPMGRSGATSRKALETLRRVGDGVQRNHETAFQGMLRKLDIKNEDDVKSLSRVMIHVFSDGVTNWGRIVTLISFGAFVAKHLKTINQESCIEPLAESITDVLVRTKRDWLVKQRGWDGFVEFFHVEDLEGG
T5 sequence (Q07820 170-327, stated change not applied): as above
T6 sequence (Q07817 1-212, stated change not applied): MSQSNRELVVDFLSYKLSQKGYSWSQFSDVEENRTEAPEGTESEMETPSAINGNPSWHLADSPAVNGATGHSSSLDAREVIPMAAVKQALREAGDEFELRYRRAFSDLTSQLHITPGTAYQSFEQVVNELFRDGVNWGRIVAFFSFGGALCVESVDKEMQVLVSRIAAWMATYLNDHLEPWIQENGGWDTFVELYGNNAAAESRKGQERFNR

In the case of “NOXA SAHBA: stapled NOXA BH3 (aa 19-43), i, i+4 hydrocarbon staple replacing R31 and K35, native C25; SEQ ID NO:9 (AELEVECATQLR[S5]FGD[S5]LNFRQKLL; staple 13-17)”, the “covalent (disulfide) bond formation with Bfl-1, BCL-XL and MCL-1” value (Bfl-1 [1]) is reported as “only Bfl-1 forms a covalent bond”, the “availability of the Bfl-1 binding pocket to another FITC BH3 domain” value (Bfl-1 [2]) is reported as “significantly decreased the availability of the Bfl-1 binding pocket” and the “anti-apoptotic effects of Bfl-1 on BAX” value (Bfl-1 [3]; Bfl-1:NOXA disulfide bond formed prior to assay) is reported as “almost completely abrogates the effects of Bfl-1”. The “anti-apoptotic effects of Bfl-1 on BAX” value (Bfl-1 [3]; peptide added concurrently with Bfl-1) was “somewhat inhibited”, the “molecular weight shift (disulfide adduct) of wild-type BFL-1ΔC” value (BFL-1ΔC [4]) was “shift in the molecular weight” and the “disulfide adduct with BFL-1ΔC C4S/C19S (only C55 present)” value (BFL-1ΔC [5]) was “molecular weight shift”. The “disulfide adduct with BFL-1ΔC C4S/C19S/C55S (lacks C55)” value (BFL-1ΔC [6]) was “no adduct”, the “molecular weight shift or FITC labeling of MCL-1ΔNΔC” value (MCL-1ΔNΔC) was “no molecular weight shift or FITC labeling” and the “molecular weight shift or FITC labeling of BCL-XLΔC” value (BCL-XLΔC) was “no molecular weight shift or FITC labeling”. For the same substance, the “MCL-1ΔNΔC engagement in SA pull-down” value (GST-MCL-1ΔNΔC) was “prominent non-covalent capture”.
